Laboratory results as given in patent publication US20240398896A1, “INFLAMMASOME INHIBITION” (National University of Singapore, priority 2021, published 2024).

T1: NLRP3 inflammasome (Mus musculus, UniProt Q9EPB4)
T1 sequence (Q9EPB4 1-193): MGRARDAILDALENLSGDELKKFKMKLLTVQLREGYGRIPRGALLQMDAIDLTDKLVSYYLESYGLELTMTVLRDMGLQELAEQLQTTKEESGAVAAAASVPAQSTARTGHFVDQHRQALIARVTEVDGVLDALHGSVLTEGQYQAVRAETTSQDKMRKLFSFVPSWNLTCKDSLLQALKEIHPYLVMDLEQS


Assays:
[1] = test system: SARS-COV-2 immune complex-induced inflammasome activation; assay: SARS-COV-2 immune complex-induced inflammasome activation in human monocytes; assay type: cell-based; details: 50 μM MCC950, 18 h
[2] = rheumatoid arthritis; cited from earlier work
NLRP3 inflammasome [3] = molecular target: T2, NLRP3 inflammasome (Homo sapiens, UniProt Q9ULZ3); assay: ASC speck and filament formation in HEK293T cells reconstituted with human NLRP3-mCitrine and human ASC-mPlum (ImageStream, confocal); assay type: cell-based; set-up: expressed in transfected cells; host or cells: HEK293T; details: HEK293T; for ASC2 filament formation / distribution: ImageStream and confocal
T2 sequence (Q9ULZ3 whole entry): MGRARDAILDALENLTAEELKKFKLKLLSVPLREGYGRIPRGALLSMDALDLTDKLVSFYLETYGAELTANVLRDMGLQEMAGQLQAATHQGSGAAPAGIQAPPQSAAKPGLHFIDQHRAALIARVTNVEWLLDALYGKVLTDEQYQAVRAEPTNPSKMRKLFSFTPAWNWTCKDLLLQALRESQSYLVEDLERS
Description: (§1) Inflammasome activation assays.
ImageStream imaging flow cytometry. […] Nuclei were stained with DAPI.
Confocal imaging. […] At 48 h post-transfection, cells were fixed with 10% formalin for 15 min at room temperature. DAPI (1:2000 dilution) was used for nuclear staining. All samples were then mounted and examined using the Leica TCS SP8 confocal microscope.

human ASC = molecular target: T3, human ASC (Homo sapiens, UniProt Q9ULZ3); assay: Co-immunoprecipitation of ASC2-His with human ASC-Flag from HEK293T cells; assay type: binding; details: 0.25 μg bat or hupa4 ASC2 vs 3 μg human ASC2 transfected, FIG. 26A
T3 construct: expressed in transfected cells; host or cells: HEK293T
T3 sequence (Q9ULZ3 whole entry): as above
Description: (§2) Co-immunoprecipitation. HEK293T cells were transfected in 6-well plate with plasmids encoding His-tagged empty vector (His alone), bat ASC2, human ASC2, and Hupa4 ASC2 along with Flag-tagged human or bat ASC. 3 μg human ASC2, in contrast to 0.25 μg control, bat or hupa4 ASC2, were transfected to normalize the expression. At 48 h post-transfection, cells were lysed in IP lysis buffer (Pierce) according to manufacturer's protocol and centrifuged at 500 g for 10 minutes at 4° C. The supernatants were subjected to immunoprecipitation by incubation for 16 hours at 4° C. with anti-Flag (Sigma) incubated magnetic beads, followed by washing three times with TBS containing 0.05% Tween 20 and once with purified water. Bound proteins were separated by 15% SDS-PAGE, followed by immunoblotting analysis with the indicated antibodies.

bat ASC = assay: Co-immunoprecipitation of ASC2-His with bat ASC-Flag from HEK293T cells; assay type: binding; details: 0.25 μg bat or hupa4 ASC2 vs 3 μg human ASC2 transfected, FIG. 26B
Description: as §2

NLRP3 inflammasome [4] = molecular target: T1, NLRP3 inflammasome; assay: Inflammasome activation in LPS-primed mouse immortalized macrophages (iMACs) stably expressing ASC2, stimulated with nigericin; assay type: cell-based; set-up: endogenous in cells; host or cells: BMDMs of C57BL/6 wild-type and bat ASC2/rtTA mice; details: iMACs stably expressing equal ASC2-LSSmOrange, LPS 3 h, FIG. 11J, 11K
Excerpt: (§3) Generation of THP-1 and IMACs stable cells. […] Single cell clones were generated for THP-1 cells stably expressing ASC2-LSSmOrange.
as §1

NLRP3 inflammasome [5] = molecular target: T2, NLRP3 inflammasome; assay: Inflammasome activation in LPS-primed THP-1 macrophages stably expressing ASC2, stimulated with nigericin; assay type: cell-based; set-up: endogenous in cells; host or cells: THP-1 macrophages (PMA-differentiated, LPS-primed); details: THP-1 macrophages stably expressing equal ASC2-mCitrine, LPS 3 h, nigericin 2 h; FIG. 11L, 11M
Excerpt: as §3, §1
ImageStream imaging flow cytometry.

Row | Molecule | Cell death (LDH release) ([1]; 100 ng/ml Pam3CSK4, immune complexes, FIG. 10M) | IL-1β secretion ([1]; Pam3CSK4 priming, immune complexes, FIG. 10I) | Reason for discontinuation after phase II clinical trials [2] | ASC2 filament formation / distribution (NLRP3 inflammasome [3]) | Co-localization with human ASC (NLRP3 inflammasome [3]; imaging, FIG. 3A) | Interaction with human ASC (co-IP) (human ASC) | Interaction with bat ASC (co-IP) (bat ASC) | ASC speck formation (human NLRP3 inflammasome activation) (NLRP3 inflammasome [3]; human NLRP3-mCitrine, human ASC-mPlum, 50 ng ASC2-LSSmOrange, 48 h post-transfection) | Inflammasome inhibition (LDH release and IL-1β secretion) (NLRP3 inflammasome [4]) | Inflammasome inhibition (LDH release and IL-1β secretion) (NLRP3 inflammasome [5])
1 | CC(C)(O)c1coc(S(=O)(=O)NC(=O)Nc2c3c(cc4c2CCC4)CCC3)c1 [MCC950] | abolished | abolished | liver toxicity |  |  |  |  |  |  | 
2 | human ASC2: wildtype human ASC2, 89 amino acids, SEQ ID NO:7 (protein) MGTKREAILKVLENLTPEELKKFKMKLGTVPLREGFERIPRGALGQLDIVDLTDKLVASYYEDYAAELVVAVLRDMRMLEEAARLQRAA |  |  |  | diffusely distributed | not between human ASC2 and human ASC |  |  |  |  | 
3 | hupa4 ASC2: human ASC2 with 4 key sites substituted simultaneously with the ones in bat ASC2, SEQ ID NO:6 (protein) MGTKREAILEVLENLTPEELKKFKMKLGTVPLREGFRRIPRGALGQLDIVDLTDKLVASYCEDYAAELVVAVLRDMGMLEEAARLQRAA |  |  |  | form filaments |  | interact strongly with human ASC | interact with bat ASC more strongly than human ASC2 | gained the ability to inhibit NLRP3 inflammasome | gain-of-function | gain-of-function
